Test results published in PMC12312565, “Crystal structures of Escherichia coli glucokinase and insights into phosphate binding” (Acta Crystallographica Section F: Structural Biology …, 2025).

Target: the molecule itself
Assay: crystal structure; phosphate-bound ecGLK, space group P4_(3)2_(1)2; crystals grown in 100 mM Tris-HCl pH 8.5, 200 mM lithium sulfate, 20%(w/v) PEG 5000 MME; data collected at room temperature; molecular replacement with PDB 1q18

B1: Escherichia coli glucokinase (enzyme, E. coli)
chain: MTKYALVGDVGGTNARLALCDIASGEISQAKTYSGLDYPSLEAVIRVYLEEHKVEVKDGCIAIACPITGDWVAMTNHTWAFSIAEMKKNLGFSHLEIINDFTAVSMAIPMLKKEHLIQFGGAEPVEGKPIAVYGAGTGLGVAHLVHVDKRWVSLPGEGGHVDFAPNSEEEAIILEILRAEIGHVSAERVLSGPGLVNLYRAIVKADNRLPENLKPKDITERALADSCTDCRRALSLFCVIMGRFGGNLALNLGTFGGVFIAGGIVPRFLEFFKASGFRAAFEDKGRFKEYVHDIPVYLIVHDNPGLLGSGAHLRQTLGHIL
notes: Escherichia coli glucokinase (glk gene cloned into pCDF-1b); Expression and purification follow Fatema et al., 2024; also called GLK; ecGLK; source: E. coli BL21 (DE3), purified (Ni-NTA, PD10 desalting)
stoichiometry N: 2
